Experimental data reported in US12616711B2, “Therapeutic dendrimer” (Starpharma Pty Ltd, priority 2019, dated 2026).

What was measured:
H460 cells = test: alamarBlue viability assay, GI50; assay type: cell-based; conditions: 72 h, given in μM Gemcitabine
Method: (§1) A study was carried out to determine the ability of example dendrimers to inhibit growth of cancer cell lines using an alamarBlue viability assay (Thermo Fisher, DAL1025).
(§2) The cytotoxicity of compounds toward MDA-MB-231, A549, H460, BxPC3 and CAPAN-1 cells were evaluated for viability. Cells were seeded at a density of 1.2-5×10^3 cells, dependent on cell growth rate, in 96 well plates and incubated overnight. Cells were then treated with serial dilutions of test compositions for 72 h (MDA-MB-231, A549 and H460 lines) or 144 h (BxPC3 and CAPAN-1 lines). For cell viability analysis, 10% media volume of alamar Blue was added during the final 6-8 h of incubation. Reduction of alamarBlue in living cells yields a red fluorescent metabolite that can be read on a plate reader (560 nm excitation/610 nm emission.). Cell viability and subsequent GI50 values were was determined from the blank corrected dose-response curves, with 4-parameter nonlinear curve fit, in GraphPad Prism.

BxPC3 cells = test: alamarBlue viability assay, GI50; assay type: cell-based; conditions: BxPC-3; 144 h; given in μM Gemcitabine
Method: as §1, §2

[1] = system: CAPAN-1 tumour xenografts; test: CAPAN-1 mouse xenograft, two conjugates (Example 14); assay type: in vivo; conditions: 3 at 6 mg/kg weekly, 6 at 5 mg/kg weekly, Gemcitabine 120 mg/kg twice weekly, 3 weeks i.v.
Method: A CAPAN-1 (human pancreatic adenocarcinoma cell line) mouse xenograft pancreatic cancer model was used to assess the anti-tumour efficacy properties of 3 and 6. NSG (NOD-SCID Interleukin-2 receptor gamma chain null) mice were inoculated and tumours sized as described above. On day 24 after implantation, mice with similar sized tumours (mean tumour volume 100 mm^3) were randomised into four groups of 10 animals for each tumour type. Gemcitabine, 3 and 6 were prepared as described above.
Gemcitabine was administered twice weekly and dendrimers were administered weekly for 3 weeks via tail vein i.v. injection, at 0.1 ml/10 g body weight.

Plasma release study = assay type: in vitro ADME; conditions: 37° C.
Method: The plasma was placed in a CO2 incubator at 3% CO2 at 42% relative humidity to reach a pH of 7.4.
Gemcitabine HCl (28.5 mg) was dissolved in Milli Q water and the resulting stock solution transferred to a 5 mL volumetric flask and diluted to provide working standard solutions.
The plasma release study was conducted by adding 1 mL of plasma (centrifuged and filtered) to 0.2 mL of dendrimer solution (approximately 2 mg/mL gemcitabine equivalent in miliQ water) for example dendrimers and a comparator. The mixtures were vortexed (30 sec) then incubated at 37° C. 5% CO2. At various timepoints aliquots (0.1 mL) were removed and added to ACN (0.2 mL). The resulting mixtures were vortexed (30 s), centrifuged (10 min, 4° C.), filtered and analysed by HPLC (C8 Xbridge, 3×100 mm, […], 0.4 mL/min., gradient: 5% ACN/H2O) (0-1 min), 5-80% ACN (1-7 min), 80% ACN (7-12 min), 80-5% ACN (12-13 min), 5% ACN (13-15 min), 100 mM ammonium formate buffer, column temperature 50° C., sample tray 4° C., 260 nm.

[BHA Lys][Lys]30[Lys]32 [Compound 3, [BHA Lys][Lys]30[Lys]32 [(α-NH-TDA-Gemcitabine)32 (ε-NHPEG˜2100)32]]
GI50 (H460 cells): 0.077 µM
GI50 (BxPC3 cells): 0.008 µM
anti-tumour efficacy compared to other groups (FIG. 7) [1]: significantly more effective than Gemcitabine or 6
Human Plasma % release (Plasma release study; 0 h): 1.81%
Human Plasma % release (Plasma release study; 2 h): 3.73%
Human Plasma % release (Plasma release study; 4 h): 6.31%
Human Plasma % release (Plasma release study; 6 h): 17.74%
Human Plasma % release (Plasma release study; 24 h): 34.83%
Human Plasma % release (Plasma release study; 30 h): 37.86%
